“Also recorded” adds a separate entry of the source.
Columns and labels:
rat plasma [1] = assay: Plasma clotting measurement in vitro, PT; type: biochemical, Sprague Dawley (SD) rats; conditions: at the same concentration
rat plasma [2] = assay: Plasma clotting measurement in vitro, TT; type: biochemical, Sprague Dawley (SD) rats; conditions: at the same concentration
rat plasma [3] = assay: Plasma clotting measurement in vitro, aPTT; type: biochemical, Sprague Dawley (SD) rats; conditions: at the same concentration
thrombin = thrombin (Homo sapiens, UniProt P00734); assay: Bio-layer interferometry; type: binding
DTIP C6A-C14A mutant = assay: BLI
DTIP Y3A mutant = assay: BLI
DTIP D24A mutant = assay: BLI
[4] = target: direct thrombin inhibitor peptide (DTIP); assay: BLI
DTIP E35A mutant = assay: BLI

## bivalirudin
Rat plasma [1]
  PT of DTIP compared with bivalirudin: on the same order of magnitude
Rat plasma [2]
  TT of DTIP compared with bivalirudin: on the same order of magnitude
Rat plasma [3]
  aPTT of DTIP compared with bivalirudin: on the same order of magnitude

## enoxaparin sodium
thrombin
  Binding of thrombin in BLI (in words): no direct interaction; also recorded: No binding

## thrombin (enzyme)
DTIP C6A-C14A mutant
  Kd: 138 nM
DTIP Y3A mutant
  Kd: 162 nM
DTIP D24A mutant
  Kd: 194 nM
[4]
  Kd: 164 nM
DTIP E35A mutant
  Kd: 188 nM

Source: publication PMC7468311 (Acta Pharmacologica Sinica, 2020)
